In assay [1] the target is Trypsin (8 nM), Novo Nordisk A/S, Bagsvaerd, Denmark.
Assay [2] concerns the target plasma kallikrein (3 nM), Kabi.
The target in assay [3] is Urokinase (5 nM), Serono, Freigung, Germany.
Assay [4] concerns the target Leukocyte Elastase, purified at Novo Nordisk A/S using the method of Baugh and Travis.
For assay [5], the target named is T1, Cathepsin G, purified at Novo Nordisk A/S using the method of Baugh and Travis.
T1 sequence (P08311 21-244, species assumed, looked up): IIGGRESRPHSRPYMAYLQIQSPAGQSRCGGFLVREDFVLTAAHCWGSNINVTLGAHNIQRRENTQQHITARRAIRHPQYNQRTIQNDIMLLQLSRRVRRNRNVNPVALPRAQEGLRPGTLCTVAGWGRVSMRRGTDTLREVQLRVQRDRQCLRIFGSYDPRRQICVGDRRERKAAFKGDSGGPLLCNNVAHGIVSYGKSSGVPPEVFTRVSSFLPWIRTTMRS

Assay [6] concerns the target glandular kallikrein (1 U/ml), Sigma, St Louis, MO.
Assay [7] deals with Chymotrypsin (2.5 nM), Novo Nordisk A/S.

B1: Kunitz-type inhibitor domain of the amyloid protein precursor (protein)
chain: EVCSEQAETGPCRAMISRWYFDVTEGKCAPFFYGGCGGNRNNFDTEEYCMAVCGSA
On to B1, for which the % Inhibition in assay [1] is 99.7%; in assay [2] it was 71%; in the assay with Plasmin (10 nM), Kabi, 90%; in assay [3], 0%; in assay [4], 6%; in assay [5], 16%. The % Inhibition in assay [6] stood at 82%; in assay [7] it was 94%.

The % Inhibition is how much of the control response was suppressed. Read a low % Inhibition as a weak effect.

The values are drawn from US5677146.
